From patent US20050026833A1, “PSP-94: use for treatment of hypercalcemia and bone metastasis” (priority 2001, published 2005)
“Also recorded” adds a separate entry of the source.

Key:
[1] = system: Mat Ly Lu-PTHrP cells; assay: Mat Ly Lu-PTHrP cell growth curve (Coulter counter); assay type: cell-based, rat
Protocol: Growth curve. For growth curves, Mat Ly Lu-PTHrP cells were plated in 6-well plates (Falcon Plastics, Oxnard, Calif.) at seeding densities of 5×10^3 cells/well. Mat Ly Lu-PTHrP cells were grown in the presence of 0.1, 1.0 & 10.0 ug/ml of PSP-94 or vehicle alone for up to 3 days and the ability of PSP-94 to alter cell doubling time was evaluated daily. Medium was changed every two days. The number of cells was counted in a model Z Coulter counter (Coulter Electronics, Beds, UK). Comparison was also made with doubling time of wild type untransfected Mat Ly Lu cells.
(§1) Mat Ly Lu cells transfected with vector alone (CMV) or vector expressing PTHrP were seeded at a density of 5×10^3 cells/well in 6-well plates. Mat Ly Lu-PTHrP cells were treated with PSP-94 and were trypsinized and counted using a coulter counter as described herein. Change in cell number following treatment with 10.0 ug/ml of PSP-94 for 72 hrs is illustrated in FIG. 1.
(§2) Mat Ly Lu-PTHrP cells were seeded at a density of 5×10^3 cells/well in 6-well plates and treated with different doses (1.0-100.0 ug/ml) of PCK3145 for up to 5 days and were trypsinized and counted using a coulter counter as described herein.

[2] = system: PTHrP; assay: Plasma PTHrP radioimmunoassay in tumor bearing animals; assay type: in vivo, male Copenhagen rats
Protocol: (§3) Control animals received PBS alone as vehicle control.
(§4) Other Analytical Methods. Plasma calcium levels were determined by atomic absorption spectrophotometry (model 703, Perkin-Elmer, Norwalk, Conn.). For plasma PTHrP, all samples were tested in two dilutions in PTHrP radio-immunoassay (R.I.A.) kit (Nichols Institute Diagnostics, San Juan Capistrano, Calif.) according to manufacturer's instructions.
(§5) Comparison was made between plasma collected from normal, non-tumor bearing animals (N), control tumor bearing animals receiving vehicle alone (CTL) and plasma collected from experimental animals receiving different doses of PSP-94 (0.1-10.0 ug/kg/day). Plasma calcium levels were determined by atomic absorption spectrophotometry (model 703, Perkin-Elmer, Norwalk, Conn.). For plasma PTHrP, all samples were tested in two dilutions in PTHrP R.I.A. kit (Nichols Institute Diagnostics, San Juan Capistrano, Calif.) according to manufacturers instructions.
(§6) FIGS. 10A and 10B show male Copenhagen rats inoculated s.c. with 10^6 Mat Ly Lu-PTHrP cells. Following 3 days of tumor cell inoculation, animals were treated with vehicle alone (Ctl) or different doses (1.0, or 10.0 ug/kg/day) of PSP-94 for 18 days. Animals were sacrificed on day 21 and plasma PTHrP (FIG. 10A; expressed in picomole equivalents/liter) or plasma calcium (FIG. 10B; expressed in millimolar (mM)) levels were determined. Results for non-tumor bearing animals are also shown (N).
Comparison was made between plasma collected from normal, non-tumor bearing animals, control tumor bearing animals receiving vehicle alone and experimental animals receiving different doses of PCK3145 (1.0-100.0 ug/kg/day). […] Plasma PTHrP levels in normal non-tumor bearing animals are also shown (N).

[3] = system: Mat Ly Lu-PTHrP tumors; assay: TUNEL assay and Hoechst counterstaining of primary tumor sections; assay type: in vivo, male Copenhagen rats; conditions: vs vehicle; for TUNEL staining of tumor sections: fifteen days
Protocol: For TUNEL assay, tissue sections were, for example, dewaxed (e.g., in xylene), (may also be rehydrated by heating at 60° C. followed by washing in xylene) and (further) rehydrated through a graded alcohol series (100%-70%). Tissues were incubated with proteinase K for 30 min at 37° C. fixed, blocked and permeabilized. Apoptotic cells were detected by TUNEL assay in situ cell death detection kit (Roche Molecular Biochemicals, Laval, QC) according to the manufacturer's instruction. Positive TUNEL staining was visualised by fluorescence microscopy. In other experiments following TUNEL assay, tissue sections were counterstained with Hoechst 33258 (Sigma-Aldrich, Canada). Hoechst staining was added to tissues at a final concentration of 24 ug/ml in PBS and incubated for 15 minutes at room temperature. Tissue sections were washed and visualized by fluorescence microscopy using a blue screen (Rabbani, S. A., et al., Int. J.Cancer, 87:276-282, 2000). All results of immunohistochemistry and TUNEL assay were evaluated and interpreted by two independent examiners.
The degree of DNA fragmentation was also analyzed in vivo using TUNEL assay which can serve as a marker for apoptosis. […] All animals were sacrificed at the end of the study and their primary tumors removed, paraffin embedded, sectioned and processed by TUNEL assay (upper panel of FIG. 14B) as described herein. Following TUNEL assay, they were counterstained with Hoescht reagent (lower panel of FIG. 14B).
In order to investigate an underlying molecular mechanism of action of PCK3145 in reducing tumor growth, Mat Ly Lu-PTHrP tumors were analyzed using TUNEL assay which can serve as a marker for apoptosis. […] All animals were sacrificed at the end of the study and their primary tumors removed, paraffin embedded, sectioned and processed by TUNEL assay (upper panel) and counterstained with Hoescht reagent (lower panel). Five animals were present in each group and three sections were analyzed for each animal.

[4] = system: Mat Ly Lu-PTHrP tumors; assay: S.C. Mat Ly Lu-PTHrP tumor growth (volume, weight) in Copenhagen rats; assay type: in vivo, male Copenhagen rats
Protocol: as §3
Starting from the day of tumor cell inoculation animals were infused S.C., below the tumor cell inoculation site, with different doses of PSP-94 (0.1-10.0 ug/kg/day) for up to 15 days.
In FIG. 2B male Copenhagen rats were inoculated s.c with 10^6 Mat Ly Lu-PTHrP cells. After 3 days of tumor cell inoculation, animals were injected with vehicle alone (Ctl) or different doses (0.1, 1, 10 ug/kg) of PSP-94 (nPSP) at the site of tumor cell injection. Tumor volume (expressed in cubic centimeter (cm^3)) was determined at timed intervals.
At the end of the study tumors from control (CTL), vehicle treated animals and PSP-94 treated animals were excised and weighed.

[5] = Plasma calcium by atomic absorption spectrophotometry in tumor bearing animals; assay type: in vivo, male Copenhagen rats
Protocol: as §3, §4, §5, §6
Plasma calcium levels from non-tumor bearing animals are also shown (N).

[6] = system: Mat Ly Lu-PTHrP cells; assay: Cell morphology of treated Mat Ly Lu-PTHrP cells; assay type: cell-based, rat
Protocol: Cell morphology. Morphological analysis of control and experimental Mat Ly Lu-PTHrP cells treated with PSP-94 or PCK3145 was carried out by plating 5×10^4 cells/ well in 6-well plates (Falcon Plastics, Oxnard, Calif.) in the presence of 10% FBS.
as §1, §2

## E W Q T D N C E T C T C Y E T (EWQTDNCETCTCYET; PCK3145 (polypeptide 31-45))
[1]; PCK3145 1.0-100.0 ug/ml up to 5 days, vs vehicle
  cell growth: dose dependent decrease
[1]; PCK3145 highest dose 100.0 ug/ml, vs vehicle
  cell number: significant reduction
[2]; PCK3145 1.0-100.0 ug/kg/day, day 16, vs vehicle
  plasma PTHrP levels: dose-dependent decrease
[3]; Example 9, PCK3145 study
  Hoechst counterstaining of tumor sections: presence of apoptotic bodies
[3]; PCK3145 100.0 ug/kg/day
  TUNEL staining of tumor sections: significantly more TUNEL positive
[4]; PCK3145 1.0-100.0 ug/kg/day S.C. for 15 days, vs vehicle
  tumor volume: significant dose-dependent reduction
[4]; different doses of PCK3145, day 16 (data not shown), vs vehicle
  tumor weight: dose-dependent decrease
[5]; 100.0 ug/kg PCK3145, relative to lower doses
  plasma calcium levels: more pronounced
[5]; different doses of PCK3145, day 16, vs vehicle
  plasma calcium levels: significant reduction
[6]; 100.0 ug/ml PCK3145 (data not shown)
  cell morphology: changed their morphology from a more spindle-like appearance to a more circular and condensed shape

B1: PSP-94: prostate secretory protein of 94 amino acids; native human seminal plasma PSP-94 (protein)
chain: SCYFIPNEGVPGDSTRKCMDLKGNKHPINSEWQTDNCETCTCYETEISCCTLVSTPVGYDKDNCQRIFKKEDCKYIVVEKKDPKKTCSVSEWII
[1]; 10.0 ug/ml PSP-94 for 72 hrs, vs cells without PSP-94
  MatLyLu-PTHrP cell growth: significant decrease
[2]; 10.0 ug/kg/day PSP-94
  plasma PTHrP levels: near normalization
[2]; PSP-94 0.1-10.0 ug/kg/day, day 16, vs vehicle
  plasma PTHrP levels: dose-dependent decrease
[3]; Example 9, PCK3145 study
  Hoechst counterstaining of tumor sections: condensed chromatin
[3]; PSP-94 10.0 ug/kg/day
  TUNEL staining of tumor sections: significantly more TUNEL positive
[3]; PSP-94 treated animals
  Hoechst counterstaining of tumor sections: presence of apoptotic bodies; also recorded: condensed chromatin
[4]; 10.0 ug/kg/day PSP-94 as compared to 1.0 ug/kg/day PSP-94
  tumor volume: did not show a marked decrease
[4]; PSP-94 0.1-10.0 ug/kg/day S.C. up to 15 days, vs vehicle
  tumor volume: marked dose-dependent reduction
[4]; PSP-94 0.1-10.0 ug/kg/day, tumors excised day 16, vs vehicle
  tumor weight: significant dose-dependent decrease
[5]; different doses of PSP-94, day 16, vs vehicle
  plasma calcium levels: significant reduction; also recorded: dose-dependent decrease
[5]; highest dose of PSP-94, 10.0 ug/kg/day
  plasma calcium levels: near normalization
[6]; 10.0 ug/ml PSP-94 for 3 days (data not shown)
  tumor cell morphology: noticeable change in tumor cell morphology
